The DeepSol protein solubility set

Experiment: soluble on expression in E. coli; label from the status in PepcDB or PDB records

Sequence	soluble on expression in E. coli
VMPLILLPAVDVVEGRAVRLVQGKAGSQTEYGSAVDAALGWQRDGAEWIHLVDLDAAFGRGSNHELLAEVVGKLDVQVELSGGIRDDESLAAALATGCARVNVGTAALENPQWCARVIGEHGDQVAVGLDVQIIDGEHRLRGRGWETDGGDLWDVLERLDSEGCSRFVVTDITKDGTLGGPNLDLLAGVADRTDAPVIASGGVSSLDDLRAIATLTHRGVEGAIVGKALYARRFTLPQALAAVRD	soluble
VNCVFITPDKMDGKRISYDYVVQQYEIQRLLQRRPLITLIDICKEITSGIRVKKEYYTDKNGYKIIAPGDIRNEVIYINELKVVQPEVVREKDIINNGDILITASGKSGQVIYVNEVLEGCVVTSDIIKITLRDRDKGIRLYKFLKSSIGQMLLNSIKIGILNKIFVEDVENLLIPEDFDTYQEDCSDDSTVYAEAEKLYRSAENIFYRVFDYKGEKKNLKHFYVTEYLDSHRLDPEYYSNFYTELYRVIHKNFDDVKWEELGELVEIKKADKPEISKNQKVKYFLLADIDPNFSIIKETHEDFYGNLSNRMRYIVRRGEIVTAKGGSATGTKGHATALITEKFDGLVTTDALYNLVPRRINPYYLLFLFKQPIILNQVNMFTKGTLYKLIQRNDFEKIKIPRLESSLEEQIVDKMMNYLSVLQNKF	not soluble
VNKLSPRFEINEGTYSSFAVAQEGAAPGAGEVRTHRIAVGLYSLIDGSVTRTHRVELDVDSELTEVPELVGVPAADLVIVNDDDLTYCLMQLDPASLAFVVENIDKIADPMARTLCWSAAWEMTRDGSMRARDFVRLIARGAQAETEIAVLERVLMQASRALSSYVDPQWAEQEGSALLADAMLQAARELEPGSDAQLAFVQALAKVKLTDEAAAEFALIAKGSTSLPGVVVDSDLRWWALTALIARGDVPAAEVEQRIAQLLALDKSSAGELAALRAYAAQPSQDVKAKIFAQITDPANSLSNLYLRHKLEGLQFAGSAPYLEQFSESVFELVEPLWKALSSEVAAVTVTGIYPSWDVSAESVERAHAFLDAHPDLPGAARRIISEGAAGQERAVRLRAIDAA	not soluble
VQLQQSGPVLVKPGGSVKMSCKASEYTLTSYLFQWVKQKSGQGLEWIGYIYPYNGGTRYNEKFRGKATLTSDKSSNTAYLELSSLTSEDSAVYYCARSSMSDPGANWGPGTLVTVSSASTKGPSVFPLAPSSKSTSGGTAALGCLVKDYFPEPVTVSWNSGALTSGVHTFPAVLQSSGLYSLSSVVTVPSSSLGTQTYICNVNHKPSNTKVDKKVEP	soluble
VQQTERAVMLRFGRVVESDVKPGLHFKIPYVNQVRKFDARLLTLDAPTQRFLTLEKKAVMVDAYAKWRVADAERFYTATSGLKQIADERLSRRLEAGLRDQFGKRTLHEVVSGERDALMGDITASLNRMAQKELGIEVIDVRVKAIDLPKEVNRSVFERMSTEREREAREHRAKGRELAEGIRADADRQRRVIVAEAYRESEETRGDGDSKAAAIYAKAYNQDPEFYSFYRSLKAYRESFAEKRDVLVLDPSSEFFRY	not soluble
VRQRTIVCPLIQNDGAYLLCKMADDRGVFPGQWAISGGGVEPGERIEEALRREIREELGEQLLLTEITPWTFSDDIRTKTYADGRKEEIYMIYLIFDCVSANREVKINEEFQDYAWVKPEDLVHYDLNVATRKTLRLKGLL	soluble
VRRKVRRLTLAVSALVALFPAVAGCSDSGDNKPGATIPSTPANAEGRHGPFFPQCGGVSDQTVTELTRVTGLVNTAKNSVGCQWLAGGGILGPHFSFSWYRGSPIGRERKTEELSRASVEDINIDGHSGFIAIGNEPSLGDSLCEVGIQFSDDFIEWSVSFSQKPFPLPCDIAKELTRQSIANSK	not soluble
VRSRNGGATKIVREHYLRSDIPCLSRSCTKCPQIVVPDAQNELPKFILSDSPLELSAPIGKHYVVLDTNVVLQAIDLLENPNCFFDVIVPQIVLDEVRNKSYPVYTRLRTLCRDSDDHKRFIVFHNEFSEHTFVERLPNETINDRNDRAIRKTCQWYSEHLKPYDINVVLVTNDRLNREAATKEVESNIITKSLVQYIELLPNADDIRDSIPQMDSFDKDLERDTFSDFTFPEYYSTARVMGGLKNGVLYQGNIQISEYNFLEGSVSLPRFSKPVLIVGQKNLNRAFNGDQVIVELLPQSEWKAPSSIVLDSEHFDVNDNPDIEAGDDDDNNESSSNTTVISDKQRRLLAKDAMIAQRSKKIQPTAKVVYIQRRSWRQYVGQLAPSSVDPQSSSTQNVFVILMDKCLPKVRIRTRRAAELLDKRIVISIDSWPTTHKYPLGHFVRDLGTIESAQAETEALLLEHDVEYRPFSKKVLECLPAEGHDWKAPTKLDDPEAVSKDPLLTKRKDLRDKLICSIDPPGCVDINDALHAKKLPNGNWEVGVHIADVTHFVKPGTALDAEGAARGTSVYLVDKRIDMLPMLLGTDLCSLKPYVDRFAFSVIWELDDSANIVNVNFMKSVIRSREAFSYEQAQLRIDDKTQNDELTMGMRALLKLSVKLKQKRLEAGALNLASPEVKVHMDSETSDPNEVEIKKLLATNSLVEEFMLLANISVARKIYDAFPQTAMLRRHAAPPSTNFEILNEMLNTRKNMSISLESSKALADSLDRCVDPEDPYFNTLVRIMSTRCMMAAQYFYSGAYSYPDFRHYGLAVDIYTHFTSPIRRYCDVVAHRQLAGAIGYEPLSLTHRDKNKMDMICRNINRKHRNAQFAGRASIEYYVGQVMRNNESTETGYVIKVFNNGIVVLVPKFGVEGLIRLDNLTEDPNSAAFDEVEYKLTFVPTNSDKPRDVYVFDKVEVQVRSVMDPITSKRKAELLLK	soluble
VSAETAARIDAESDSMDWPQEVTLGEVLRERFGDDLVDHVVSALQGGVYSSTSDDLSLRDTVPQLARALDRLKEEGKPVTITAAVQSIMADREKRNKARGYKPSVFAAFPGGYAELYEALAEKSGAKIHIDAFITGIQWKDGFTLKGAEGTFDK	not soluble
VSELRLMAVHAHPDDESSKGAATLARYADEGHRVLVVTLTGGERGEILNPAMDLPDVHGRIAEIRRDEMTKAAEILGVEHTWLGFVDSGLPKGDLPPPLPDDCFARVPLEVSTEALVRVVREFRPHVMTTYDENGGYPHPDHIRCHQVSVAAYEAAGDFCRFPDAGEPWTVSKLYYVHGFLRERMQMLQDEFARHGQRGPFEQWLAYWDPDHDFLTSRVTTRVECSKYFSQRDDALRAHATQIDPNAEFFAAPLAWQERLWPTEEFELARSRIPARPPETELFAGIEP	soluble
VSQVHRILNCRGTRIHAVADSPPDQQGPLVVLLHGFPESWYSWRHQIPALAGAGYRVVAIDQRGYGRSSKYRVQKAYRIKELVGDVVGVLDSYGAEQAFVVGHDWGAPVAWTFAWLHPDRCAGVVGISVPFAGRGVIGLPGSPFGERRPSDYHLELAGPGRVWYQDYFAVQDGIITEIEEDLRGWLLGLTYTVSGEGMMAATKAAVDAGVDLESMDPIDVIRAGPLCMAEGARLKDAFVYPETMPAWFTEADLDFYTGEFERSGFGGPLSFYHNIDNDWHDLADQQGKPLTPPALFIGGQYDVGTIWGAQAIERAHEVMPNYRGTHMIADVGHWIQQEAPEETNRLLLDFLGGLRP	soluble
VTSPNSTAPTPSLITAPPPSTTEDLRLALRAATLYYLDGMTQAEVATRLGVSRPTAGRLVARARAQGLVRIEVQAPAHLRDALRSDEERALEEKYGLVEAVVVADSVDAAGAIDDHNSFAGVGRAAASLLVRRIREGDTLGFTWGPETVAVAQGLPSGAATCASVVQLDGSVSAINYQTGTEYVLGRCAEQLQANTVRLPVPLYADASTVVSMRGDSVISKALEAGRTAEMMMFGTGAVSTSTTLFEGSFIDTDMLSVLTGLGAVGEVGGRFYRLDGTEVAGPLDERAMSVPLDDIRACEGSILVTGGVAKHQAALGALHGGLAKMLVCDIECARWLLDQ	not soluble
VTVSTSTARSADDSDHSSEVARPTDSRRDPEVLREALQRWLAAQLPPDAAPEVTHVHLPDANGMSSETILFDATWSGEVHPLVARVAPADTTMPVFPEYDLDGQFQVMAQVREHSAVPVPVVYWSESDPGPLGAPFFVMARVSGQVPPDVMPYNFGSWVTEATEEQRALLQHSAVNVLAQLHDIDRPWERFAFLQLPGSGPTVTEALAAHIRQQRDYYEWTTLSGPRSPLIERGFAWMEDNLPDDPSPAVFCWGDARIGNMMFEDFRPVAVLDWEMATLGPRELDLGWMTYLHRFFEDIAASAGLDGMPDFLRLDDLAALYEELTGHTPRDLEYYTAYAALRQATIMLRIQERAIHFGQAVAPEDPDDMIMHRASLEAMLDGTYWEKIR	not soluble
VVELPKTDEGLGFNIMGGKEQNSPIYISRVIPGGVADRHGGLKRGDQLLSVNGVSVEGEQHEKAVELLKAAQGSVKLVVR	soluble
VVIFFGVILGILIVEYGQKRSFSSWLVEKMFAYRKYKLSKKVDNYKGVETQRNRNIPYHLDNPEEIVGFSTQEYDVNGMQVFIINDQKQSHQPVIYYLYGSVYLRRPEKLHFKTVKHLIQLTNAKVVFPNFPKVPYATYQDVYPKLVEAYQQFCLSNGPSQVSVIGDSSGGGMALAFAKYIRDTKTAPQPKQLILISPWLDVSFKNQAYKDFEAEEAYLDARRLRDIGELWAGGQGNMQLPYVSPLYGDYEDLPEITTFVGTKEIFYPDIMSLHDQLTRQRIANQLIIAEKMIHAYVIFPIREAKQARKQIAELVLKTVEHT	not soluble
WLRPAFAGKTRLDALDEAAFEQAVKSLLSWTQHALIDRHVPAHIIVPSGMGRHIDYGLADDGTPQPPVLSVKLQELFGLPDTPRIAKNRIPLTLHLLSPGGRPLQVTQDLKSFWTNTYPEVKKEMKGRYPKHPWPDDPWTATATHRTKSPGK	not soluble
YDNLAHNLAVERGLTAGVLGSQGKTEIVQKLTQQRKKVDDAVNSLVQLNTPLISSSDSYDLLQDVQVQLNRLNQVRQGVDRLSPQIAPFGYYSNLNQLIIDNIDILIAQTQSRELGTLGDALISVIVMKERAGQARGALNGVFAKGSATSVLFSNIEGYIQSGDYASRKAQIAFPEQYRQSLQSHQSNPAWKKVEQVQQSFLNQSANLDNIQGPQATEWFPMATERIGLMNQLRNQMVDQMLSAA	not soluble
YKEEDSTVSILPTSLPQIHRANMLAQGSPAASKISPLVTKKSKTRWHFGIRSRSYPLDVMGEIYIALKNLGAEWAKPSEEDLWTIKLRWKYDIGNKTNTNEKIPDLMKMVIQLFQIETNNYLVDFKFDGWESSYGDDTTVSNISEDEMSTFSAYPFLHLTTKLIMELAVNS	soluble
YKIEKEQRLGLIPQREGNYEKNKNVLESATVKINYYSSKATSGQAGAAASAAFAKNNNTSDNTQQNQTSSVEAKSVNVTKHSFVQALKKVGFSGSNPLHFNMKLGNSSLSANGVDYYNAVKQALTELG	not soluble
YPNASPLLGSSWGGLIHLYTATARNSYHLQIHKNGHVDGAPHQTIYSALMIRSEDAGFVVITGVMSRRYLCMDFRGNIFGSHYFDPENCRFQHQTLENGYDVYHSPQYHFLVSLGRAKRAFLPGMNPPPYSQFLSRRNEIPLIHFNTPIPRRHTR	soluble
YRENDPRLQLAFKLFLDGCTDKEVEQQTGINRRTFRRYRMKYGITNSLRHKND	not soluble
YSVTVKWGKEKFEGVELNTDEPPMVFKAQLFALTGVQPARQKVMVKGGTLKDDDWGNIKMKNGMTVLMMGSADALPEEPSAKT	soluble
